Several values for one entry are separate records, joined by “and”; a condition that tells them apart may be missing. Identical values can stand only once. Where no end group is shown, it is not given here. The star is where a group is joined. Dnp = O=[N+]([O-])c1ccc(*)c([N+](=O)[O-])c1; 2Abz = Nc1ccccc1C(=O)O
What was measured:
[1] = molecular target: Human plasma purified α-thrombin (Homo sapiens, UniProt P00734); assay: Thrombin cleavage kinetics of quenched fluorescence (QF) peptide substrates, progress curve; assay type: biochemical; conditions: for Fold-Improved (FpA): kcat/KM relative to FpA substrate Lys(Dnp)-DFLAEGGGVRIVGG-Lys(Abz); for Fold-Improved (PAR-1): kcat/KM relative to PAR 1 control substrate Lys(Dnp)-ATNATLDPRIVGG-Lys(Abz)
[2] = molecular target: T1, Human plasma purified Factor Xa (Homo sapiens, UniProt P00742); assay: Factor Xa cleavage kinetics of quenched fluorescence (QF) peptide substrates, progress curve; assay type: biochemical; conditions: for Specificity Ratio (FIIa/FXa): FIIa kcat/KM divided by FXa kcat/KM, natural sequence QF substrates; for specificity ratio: X4/X3 positional scanning QF library (Table 4), FIIa/FXa
T1 construct: purchased Molecular Innovations, Inc, Novi Mich., USA; host or cells: human plasma
T1 sequence (P00742 41-179 limits assumed): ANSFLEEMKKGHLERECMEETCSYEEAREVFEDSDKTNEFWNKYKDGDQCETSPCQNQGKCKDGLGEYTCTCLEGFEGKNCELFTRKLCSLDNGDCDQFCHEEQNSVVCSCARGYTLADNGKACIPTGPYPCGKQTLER
T1 sequence (P00742 235-488 limits assumed): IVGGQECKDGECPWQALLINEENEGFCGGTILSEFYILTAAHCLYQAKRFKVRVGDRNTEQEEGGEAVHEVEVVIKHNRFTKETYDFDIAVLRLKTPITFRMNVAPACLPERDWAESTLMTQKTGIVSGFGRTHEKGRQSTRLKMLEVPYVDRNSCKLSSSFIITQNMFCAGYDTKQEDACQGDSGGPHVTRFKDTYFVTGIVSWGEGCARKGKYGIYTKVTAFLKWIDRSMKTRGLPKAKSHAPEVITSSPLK

Substance | Fold-Improved (FpA) [1] | Fold-Improved (PAR-1) [1] | Specificity Ratio (FIIa/FXa) [2] | specificity ratio [2]
Antithrombin: QF substrate Lys(Dnp)-X10-X1-IVGG-Lys(Abz), X10-X1 = ASTAVVIAGR (K(Dnp)ASTAVVIAGRIVGGK(2Abz)) | 0.001 | 0.000 | 0 | –
Factor V (1): QF substrate Lys(Dnp)-X10-X1-IVGG-Lys(Abz), X10-X1 = HTHHAPLSPR (K(Dnp)HTHHAPLSPRIVGGK(Abz)) | 77.2 | 11.2 | 2 | –
Factor V (2): QF substrate Lys(Dnp)-X10-X1-IVGG-Lys(Abz), X10-X1 = NRLAAALGIR (K(Dnp)NRLAAALGIRIVGGK(2Abz)) | 1.8 | 0.3 | 302 | –
Factor V (3): QF substrate Lys(Dnp)-X10-X1-IVGG-Lys(Abz), X10-X1 = PDNIAAWYLR (K(Dnp)PDNIAAWYLRIVGGK(2Abz)) | 0.2 | 0.03 | 7 | –
Factor VIII (1): QF substrate Lys(Dnp)-X10-X1-IVGG-Lys(Abz), X10-X1 = LSKNNAIEPR (K(Dnp)LSKNNAIEPRIVGGK(2Abz)) | 32.3 | 4.7 | – | –
Factor VIII (2): QF substrate Lys(Dnp)-X10-X1-IVGG-Lys(Abz), X10-X1 = YDEDENQSPR (K(Dnp)YDEDENQSPRIVGGK(2Abz)) | 2.3 | 0.3 | 13 | –
Factor XI: QF substrate Lys(Dnp)-X10-X1-IVGG-Lys(Abz), X10-X1 = NESTTKIKPR (K(Dnp)NESTTKIKPRIVGGK(2Abz)) | 49.2 | 7.1 | 559 | –
Factor XIII: QF substrate Lys(Dnp)-X10-X1-IVGG-Lys(Abz), X10-X1 = TVELQGVVPR (K(Dnp)TVELQGVVPRIVGGK(Abz)) | 28.7 | 4.2 | 114 | –
FpA_P: QF substrate Lys(Dnp)-X10-X1-IVGG-Lys(Abz), X10-X1 = DFLAEGGGPR; FpA with proline at X2 (K(Dnp)DFLAEGGGPRIVGGK(2Abz)) | 97.8 | 14.2 | 6914 | –
FpB: QF substrate Lys(Dnp)-X10-X1-IVGG-Lys(Abz), X10-X1 = DNEEGFFSAR (K(Dnp)DNEEGFFSARIVGGK(2Abz)) | 0.7 | 0.1 | 1 | –
Lys(Dnp)-DFLAEGGGVRIVGG-Lys(Abz) (K(Dnp)DFLAEGGGVRIVGGK(2Abz)) [FpA, reference compound] | – | – | 121 | –
MKPR: QF library substrate Lys(Dnp)-ATNATX4X3PRIVGG-Lys(Abz) with X4-X1 = MKPR (K(Dnp)ATNATMKPRIVGGK(2Abz)) | – | – | – | ~300 fold
MTPR: QF library substrate Lys(Dnp)-ATNATX4X3PRIVGG-Lys(Abz) with X4-X1 = MTPR (K(Dnp)ATNATMTPRIVGGK(2Abz)) | – | – | – | ~300 fold
Osteopontin: QF substrate Lys(Dnp)-X10-X1-IVGG-Lys(Abz), X10-X1 = RGDSVVYGLR (K(Dnp)RGDSVVYGLRIVGGK(Abz)) | 1.0 | 0.1 | 239 | –
PAR1 (2): QF substrate with X8-X1 = TNATLDPR, prime side IVGG (KTNATLDPRIVGGK) | – | – | 4 | –
PAR1 (3): QF substrate with X6-X1 = ATLDPR, prime side IVGG (KATLDPRIVGGK) | – | – | 4 | –
PAR 1: QF substrate Lys(Dnp)-X10-X1-IVGG-Lys(Abz), X10-X1 = KATNATLDPR (Table 3 r16) (K(Dnp)ATNATLDPRIVGGK(2Abz); also: template implies Lys(Dnp) before X10 K, letters have one K, taken as Lys(Dnp)) | 9.7 and 8.9 and 8.2 | 1.4 and 1.3 and 1.2 | – | –
PAR 3: QF substrate Lys(Dnp)-X10-X1-IVGG-Lys(Abz), X10-X1 = NLAKPTLPIK (K(Dnp)NLAKPTLPIKIVGGK(2Abz)) | 0.04 | 0.01 | 5 | –
PAR 4: QF substrate Lys(Dnp)-X10-X1-IVGG-Lys(Abz), X10-X1 = STPSILPAPR (K(Dnp)STPSILPAPRIVGGK(2Abz)) | 23.1 | 3.4 | 40 | –
Protein C: QF substrate Lys(Dnp)-X10-X1-IVGG-Lys(Abz), X10-X1 = EDQEDQVDPR (K(Dnp)EDQEDQVDPRIVGGK(2Abz)) | 4.4 | 0.6 | 133 | –
TAFI: QF substrate Lys(Dnp)-X10-X1-IVGG-Lys(Abz), X10-X1 = QISNDTVSPR (K(Dnp)QISNDTVSPRIVGGK(Abz)) | 13.1 | 1.9 | 16 | –
Thrombin (1): QF substrate Lys(Dnp)-X10-X1-IVGG-Lys(Abz), X10-X1 = DQVTVAMTPR (K(Dnp)DQVTVAMTPRIVGGK(2Abz)) | 73.6 | 10.7 | 64 | –
Thrombin (2): QF substrate Lys(Dnp)-X10-X1-IVGG-Lys(Abz), X10-X1 = SEYQTFFNPR (K(Dnp)SEYQTFFNPRIVGGK(Abz)) | 48.7 | 7.1 | 0 | –
Thrombin (3): QF substrate Lys(Dnp)-X10-X1-IVGG-Lys(Abz), X10-X1 = EDSDRAIEGR (K(Dnp)EDSDRAIEGRIVGGK(2Abz)) | 0.000 | 0.000 | 141 | –
WTPR: QF library substrate Lys(Dnp)-ATNATX4X3PRIVGG-Lys(Abz) with X4-X1 = WTPR (K(Dnp)ATNATWTPRIVGGK(2Abz)) | – | – | – | ~300 fold
